Assay results taken from patent publication US12065505B2, “Antibodies and antigen binding peptides for factor XIa inhibitors and uses thereof” (Bristol-Myers Squibb Company, priority 2021, dated 2024).
Where a chain is given by its changes, count along the chain named.

B1: 26D5-75768-348-A10-mAb: human IgG1f/kappa mAb; VH SEQ ID NO: 56, VL SEQ ID NO: 89 (antibody, V domains shown)
VH: EVQLVESGGGLIQPGGSLRLSCAASGFTVSSNAVSIVRQAPGKGLEWVAYIYPGGRTYYADSVKGRFTISRDNSKNTLYLQMNSLRAEDTAVYYCTIGGFGGGDYWGQGTLVTVSS
VL: DIQMTQSPSSVSASVGDRVTITCRASQGISSNNQWYQQKPGKAPKLLIYYASSLQSGVPSRFSGSGSGTDFTLTISSLQPEDFATYYCQQGNEFPLTFGGGTKVEIK
B2: 26D5-75202-343-A09-mAb: human IgG1f/kappa mAb; VH SEQ ID NO: 54, VL SEQ ID NO: 86 (antibody, V domains shown)
VH: B1 VH with V34M, I36W, A49S, T96A, I97R, G98A
VL: B1 VL with S30Y, N33L, Q34A, Y50A, G91A
B3: 26D5-75229-343-A10-mAb: human IgG1f/kappa mAb; VH SEQ ID NO: 52, VL SEQ ID NO: 84 (antibody, V domains shown)
VH: B1 VH with V34M, I36W, A49S, T96A, I97R, G98A, G103P
VL: B1 VL with N33L, Q34A, Y50A, G91A, E93Q
B4: 26D5-296-D03-mAb: human IgG1f/kappa mAb; VH SEQ ID NO: 76, VL SEQ ID NO: 88 (antibody, V domains shown)
VH: B1 VH with A33Y, V34M, I36W, A49S, Y50F, P53S, R56E, Y58F, T96A, I97R
VL: B1 VL with N33L, Q34A, Y50A, G91A, E93S
B5: 26D5-75203-343-B09-mAb: human IgG1f/kappa mAb; VH SEQ ID NO: 54, VL SEQ ID NO: 87 (antibody, V domains shown)
VH: B1 VH with V34M, I36W, A49S, T96A, I97R, G98A
VL: B1 VL with N33L, Q34A, Y50A, S53T, G91A
B6: 26D5-296-C07-mAb: human IgG1f/kappa mAb; VH SEQ ID NO: 77, VL SEQ ID NO: 94 (antibody, V domains shown)
VH: B1 VH with F27I, A33Y, V34M, I36W, A49S, Y50F, P53S, T96A, I97R
VL: B1 VL with G28Y, N33L, Q34A, Y50A, G91A, E93S
B7: 26D5-75214-343-F06-mAb: human IgG1f/kappa mAb; VH SEQ ID NO: 53, VL SEQ ID NO: 85 (antibody, V domains shown)
VH: B1 VH with V34M, I36W, A49S, Y50F, T96A, I97R, G98A, G103P
VL: B1 VL with N33L, Q34A, Y50A, G91A
B8: P1-073708-1: 26D5 parent Fab (Fab 26D5-GV-Q); VH SEQ ID NO: 82, VL SEQ ID NO: 99 (antibody, V domains shown)
VH: B1 VH with A33Y, V34M, I36W, A49S, Y50F, P53S, T96A, I97R
VL: B1 VL with N32W, N33L, Q34A, Y50A, G91A, E93S
B9: P1-074468-1: first round optimization progeny Fab; VH SEQ ID NO: 62, VL SEQ ID NO: 88 (antibody, V domains shown)
VH: B1 VH with T28Q, V34M, I36W, A49S, Y50F, T96A, I97R
VL: B1 VL with N33L, Q34A, Y50A, G91A, E93S
B10: 26D5-GVR-Q-FT-Fab-LONG: antibody Fab fragment; VH SEQ ID NO: 81, VL SEQ ID NO: 99; sequence in Table 3 (antibody, V domains shown)
VH: B1 VH with S31R, A33Y, V34M, I36W, A49S, Y50F, P53S, T96A, I97R
VL: B1 VL with N32W, N33L, Q34A, Y50A, G91A, E93S
B11: 24H1-GQTV-Fab-LONG: antibody Fab fragment; VH SEQ ID NO: 80, VL SEQ ID NO: 98; sequence in Table 3 (antibody, V domains shown)
VH: B1 VH with S31R, A33Y, V34M, I36W, A49S, Y50F, P53S, R56S, T96A, I97R
VL: B1 VL with N32W, N33L, Q34A, Q38H, Y50A, G91A, E93S

Assay: SPR (Biacore) Protein A mAb capture, Compound A injected
Conditions: 37° C., binding to Compound A, apparent affinity, for rank ordering only, read-out: KD
Method: The binding of hybridoma expressed 26D5 parent mAb (VH SEQ ID NO: 83 and VL SEQ ID NO: 98 in IgG1 f format)(P1-072224) and affinity matured mAbs to Compound A was examined by SPR (Biacore™) using a protein A capture method. The running buffer was 1×PBS (phosphate buffered saline, pH 7.4) with 0.05% Tween 20 and 2% DMSO. Binding experiments were carried out at 37° C. Protein A was coated on a CM5 S-series sensor chip (Cytiva, Cat. No. 29149603) at high density (2000+ RUs of protein A). The immobilization of protein A was carried out using the standard amine coupling immobilization procedure recommended by the manufacturer. The affinity matured antibody was then captured at a concentration of 2 ug/mL on the protein A surface at a flow rate of 3 uL/min for 2 minutes. Compound A was then injected over the captured antibody at concentrations spanning 100-3 nM (100, 50, 25, 12.5, 6.25, 3.125 nM) (FIG. 10) and for screening concentrations spanning 100-3 nM (100, 33, 11 nM) for 2 minutes at a flow rate of 100 uL/min and allowed to dissociate for at least 450 seconds. The chip surface was regenerated after each cycle with a 40 second pulse of 10 mM Glycine, pH 1.5. Background binding to the protein A surface alone was used to subtract non-specific binding. All experiments were run on a Biacore T200 surface plasmon resonance instrument using Biacore T200 Control software v. 2. Data analysis was performed using Biacore T200 evaluation software v 3.1. Apparent affinities were determined for rank ordering only since dissociation rates were too slow to be measured by Biacore. The names of the mAbs in Table 10 refer to mAbs having the H and L chain sequences of the corresponding Fabs in Table 3 in an IgG1f format.

Row | Molecule | Kd
1 | B1 | < 0.1 nM
2 | B2 | < 0.09 nM
3 | B3 | < 0.07 nM
4 | B4 | 0.71 nM
5 | B5 | < 0.05 nM
6 | B6 | 1.4 nM
7 | B7 | < 0.05 nM

Same assay, conditions: 37° C., binding to Compound A, apparent, for rank ordering only

Row | Molecule | Ka | Kd
8 | B1 | 3.8e+06 M⁻¹ s⁻¹ | <0.00041 s⁻¹
9 | B2 | 590000 M⁻¹ s⁻¹ | <5e-05 s⁻¹
10 | B3 | 770000 M⁻¹ s⁻¹ | <5e-05 s⁻¹
11 | B4 | 1.7e+06 M⁻¹ s⁻¹ | 0.0012 s⁻¹
12 | B5 | 1.2e+06 M⁻¹ s⁻¹ | <5e-05 s⁻¹
13 | B6 | 950000 M⁻¹ s⁻¹ | 0.0014 s⁻¹
14 | B7 | 1.2e+06 M⁻¹ s⁻¹ | <5e-05 s⁻¹

Assay: Competitive TR-FRET assay modified for mAbs and Fabs (T0, T24, T48)
Type: binding
Conditions: 37° C.; 24 hr; read-out: T24 hr IC50
Method: A competitive TR-FRET (time-resolved fluorescence resonance energy transfer) assay was developed to rank-order the dissociation of α-Compound A mAbs from Compound A as equilibrium is reached at 37° C. The assay buffer was HBS-N (10 mM HEPES, 150 mM NaCl, pH 7.4; GE Healthcare), 0.1% (w/v) BSA (bovine serum albumin; Sigma), 2% DMSO (dimethyl sulfoxide; Sigma). All reagents were prepared in assay buffer and dispensed in equal volumes into white 384 microplates with final volume of 20 μl per well at the following final concentrations: 4 nM COMPOUND 5, the biotinylated analog of COMPOUND 2, a 100 0.1 nM 7-pt titration of human α-Compound A antibodies, 0.1 nM europium-labeled α-mouse IgG (LANCE Eu-W1024; PerkinElmer), 5 nM streptavidin-D2 (Cisbio), and 4 nM mAb 26D5 VH_A10G_Y33A_S53P_M89V_G95A; VK_W32N_H38Q (P1-075621, the second-round optimization parent 26D5-295-B08 formatted with mouse IgG Fc). COMPOUND 5 and α-Compound A antibody titrations were added first to the microplate, and were subjected to an initial incubation at 37° C., 1000 rpm, for one hour to facilitate antibody binding to the compound. After the initial incubation period, the europium α-mouse IgG, streptavidin-D2, and 26D5-mouse IgG (P1-075621) were added sequentially, then the plate was returned to 37° C., 1000 rpm incubation. Microplates were read using a Perkin Elmer EnVision plate reader, and the measured FRET signal was defined as [665 nm]/[620 nm]*10,000. Microplates were read at 30 minutes (T0) and after 24 hour (T24) intervals. For each antibody titration, the FRET signal was converted to % Inhibition relative to wells without α-Compound A antibody: (100 ((FRET at [antibody concentration]/FRET at 0 nM)*100). The % inhibition antibody titrations were plotted using TIBCO Spotfire (v.7), and the IC50 was determined using a 4-parameter model curve fit. The IC50s at each timepoint were reported, as well as the IC50 curve shift relative to T0. An IC50 curve shift indicated α-Compound A antibody dissociation from the biotinylated compound as the assay reached equilibrium, which subsequently allowed 26D5-mouse IgG1 (P1-075621) competitor to bind and generate the FRET signal detected in the assay.
The competitive TR-FRET assay defined above was also modified to assess optimized 26D5 antibody progeny that were reformatted as Fabs. The α-Compound A antibody and Fab titration series were extended to 250 0.244 nM (11-pt titration), and replicates of each concentration were collected in quadruplicate. The assay incubation was extended to include an additional 48 hr timepoint to ensure equilibrium was reached, and T48 hr IC50 and IC50 shifts were reported. The % inhibition titrations were plotted in Graphpad Prism (v.8) and fit to a 4-parameter model. All other experimental setup conditions were otherwise identical to the antibody TF-FRET assay.
Competitive FRET data collected for affinity-optimized α-Compound A 26D5 progeny comparing human antibodies and Fabs are shown in FIG. 14 and Table 13. Each panel represents a single α-Compound A sequence, with antibody (mAb, solid lines, circles) and Fab (dotted lines, triangles) formats overlaid. […] The names of the mAbs/Fabs in Table 13 refer to the corresponding sequences in Tables 1-3. All mAbs listed in Table 13 were in a human IgG1f/LC kappa format.

Row | Molecule | IC50
15 | B1 | 2.2 nM
16 | B8 | > 28.2 nM
17 | B2 | 2.5 nM
18 | B3 | 2.4 nM
19 | B5 | 3 nM
20 | B9 | > 38.2 nM
21 | B7 | 2.5 nM

Same assay, conditions: 37° C.; 48 hr; read-out: T48 hr IC50

Row | Molecule | IC50
22 | B1 | 2.3 nM
23 | B8 | > 28.8 nM
24 | B2 | 2.9 nM
25 | B3 | 2.5 nM
26 | B5 | 3.1 nM
27 | B9 | > 43.1 nM
28 | B7 | 2.7 nM

Same assay, conditions: 37° C.; IC50 shift at 24 hr relative to T0

Row | Molecule | T24 hr IC50 shift
29 | B1 | 1.0 nM
30 | B8 | >25.7 nM
31 | B2 | 1.1 nM
32 | B3 | 1.1 nM
33 | B5 | 0.4 nM
34 | B9 | >36.0 nM
35 | B7 | 1.3 nM

Same assay, conditions: 37° C.; IC50 shift at 48 hr relative to T0

Row | Molecule | T48 hr IC50 shift
36 | B1 | 1.1 nM
37 | B8 | >26.2 nM
38 | B2 | 1.5 nM
39 | B3 | 1.1 nM
40 | B5 | 0.5 nM
41 | B7 | 1.4 nM

Same assay, conditions: 37° C.; read at 30 minutes (T0); competitor 26D5-mouse IgG (P1-075621); read-out: T0 IC50

Row | Molecule | IC50
42 | B1 | 1.2 nM
43 | B8 | 2.6 nM
44 | B2 | 1.4 nM
45 | B3 | 1.3 nM
46 | B5 | 2.6 nM
47 | B9 | 2.2 nM
48 | B7 | 1.3 nM

Assay: SPR (Biacore) on chip coated with BSA conjugated to COMPOUND 2
Type: binding
Conditions: 37° C.; Fab over COMPOUND 2-BSA surface; apparent
Method: The binding of the first round affinity matured antibody Fab fragments to conjugated versions of Compound A was examined by SPR (Biacore™) using a CM5 S-series sensor chip (Cytiva, Cat. No. 29149603) coated with BSA previously conjugated to COMPOUND 2, COMPOUND 3 or COMPOUND 1. The immobilization level was 150-250 RUs. The running buffer was 1×PBS (phosphate buffered saline, pH 7.4) with 0.05% Tween 20. […] The antibody Fab fragment at a concentration of between 200-0.8 nM was injected over the BSA-compound coated surface for 2 minutes at a flow rate of 30 uL/min. The antibody Fab fragment was then allowed to dissociate for 15 minutes. The chip surface was regenerated after each cycle with a 1 minute pulse of 10 mM Glycine, pH 2, and a 1 minute pulse of 50 mM NaOH. All experiments were run on the same equipment and analyzed with the same software as described before. Apparent affinities were determined for rank ordering only since dissociation rates were too slow to be measured by Biacore. Comparative experiments with selected mAbs were also conducted in a similar fashion (see FIG. 11).

Row | Molecule | Ka | koff, dissociation rate constant
49 | B10 | 1.3e+06 M⁻¹ s⁻¹ | 0.0016 s⁻¹
50 | B11 | 790000 M⁻¹ s⁻¹ | 0.001 s⁻¹

Same assay, conditions: 37° C.; Fab over COMPOUND 2-BSA surface; apparent affinity

Row | Molecule | Kd
51 | B10 | 1.3 nM
52 | B11 | 1.3 nM
